Results taken from patent publication US20230011916A1 (BEIGENE, published 2023).
Changes are numbered by the printed parent chain. Numbers in names are those of the source. Blank lines part the entries; values can stand above or below the binder they belong to.

What was measured:
[1] = target: T1, recombinant OX40 protein with a His tag (Cat: 10481-H08H, Sino Biological) (UniProt P43489 29-216); assay: Biacore (SPR); antigen not named on the sheet, OX40-His as in Example 4
T1 construct: Bought protein; also called OX40-His (bought); not shown: His tag
T1 sequence (looked up): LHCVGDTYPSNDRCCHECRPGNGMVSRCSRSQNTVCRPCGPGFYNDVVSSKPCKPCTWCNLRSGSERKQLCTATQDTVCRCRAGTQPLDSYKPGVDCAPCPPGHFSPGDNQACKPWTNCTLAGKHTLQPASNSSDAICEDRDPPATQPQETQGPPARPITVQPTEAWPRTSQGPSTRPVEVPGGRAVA

[2] = target: T2, full-length human OX40 expressed on HuT78 cells (HuT78/OX40) (human, UniProt P43489 29-277); assay: FACS; cells not named on the sheet, HuT78/OX40 cells as in Example 5
T2 sequence: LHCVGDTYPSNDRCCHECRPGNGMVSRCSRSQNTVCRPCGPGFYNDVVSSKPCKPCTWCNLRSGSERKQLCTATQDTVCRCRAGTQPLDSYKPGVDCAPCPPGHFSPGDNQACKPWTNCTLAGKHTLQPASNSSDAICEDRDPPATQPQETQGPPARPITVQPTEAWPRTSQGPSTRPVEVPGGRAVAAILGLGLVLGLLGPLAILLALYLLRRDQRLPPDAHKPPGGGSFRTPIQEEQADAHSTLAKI

[3] = target: T2, full-length human OX40 expressed on …; assay: FACS; against 445-2
[4] = target: T3, human OX40/IgG1 fusion H153A (human, UniProt P43489 29-216); assay: SPR, BIAcore 8K, OX40/IgG1 mutant immobilized, 445-3 Fab flowed
T3 construct: not shown: Fc domain of human IgG1 wild type heavy chain
T3 chain: T1 sequence (looked up) with H125A
Protocol: Briefly, OX40 mutants and wild type OX40 were immobilized on a CM5 biosensor chip (Cat: BR100530, GE Life Sciences) using EDC and NHS. […] The changes in surface plasmon resonance signals were analyzed to calculate the association rates (ka) and dissociation rates (kd) by using the one-to-one Langmuir binding model (BIA Evaluation Software, GE Life Sciences). The equilibrium dissociation constant (KD) was calculated as the ratio kd/ka. The KD shift fold of mutant was calculated as the ratio Mutant KD/WT KD.

[5] = target: T1, recombinant OX40 protein with a His tag …; assay: Biacore; against 445-2

- Kd [1]: 12.9 nM
- koff [1]: 0.00574 s⁻¹
- kon [1]: 444000 M⁻¹ s⁻¹
- EC50 [2]: 0.66 µg/mL
- Top(MFI) [2]: 750 MFI
- fold increase to the EC50 over 445-2 [3]: 1.7 fold
B1: 445-2 with K28T in the heavy chain and S24R in the light chain (antibody, human IgG1, V domains shown)
VH: QVQLVQSGAEVKKPGSSVKVSCKASGYTFTSYIIHWVRQAPGQGLEWMGYINPYNEGTRYAQKFQGRVTLTADKSTSTAYMELSSLRSEDTAVYYCARGYYGSSYAMDYWGQGTTVTVSS
VL: DIQMTQSPSSLSASVGDRVTITCRASQGISNYLNWYQQKPGKAIKLLIYDASTLYSGVPSRFSGSGSGTDFTLTISSLQPEDFATYYCQQYSKLPYTFGGGTKVEIK

- binding result [4]: no binding
B2: 445-3 Fab (Fab, V domains shown)
VH: B1 VH with T28K, A61N
VL: B1 VL with G41D, K42G

- fold increase to the KD over 445-2 [5]: 1.7 fold
- Kd [1]: 21.5 nM
- koff [1]: 0.00135 s⁻¹
- kon [1]: 62500 M⁻¹ s⁻¹
- EC50 [2]: 0.755 µg/mL
- Top(MFI) [2]: 630 MFI
B3: 445-2 with Y27G in the heavy chain and S24R in the light chain (antibody, human IgG1, V domains shown)
VH: B1 VH with Y27G, T28K
VL: B1 VL
